This passage reports Km, kcat and kcat/Km results from publication PMC10960309.

A word on the Km: it is the substrate concentration at which the rate is half of its maximum. As usually defined, the kcat is the maximal rate divided by the concentration of active sites. In general, kcat/Km refers to the turnover number divided by the Michaelis constant.

Holding throughout (assay): purified protein
Holding throughout (settings): 50 mM sodium borate pH 9.5, 37°C, 1.9 mM OPA, 1 mM DTT, 5% DMSO

Substrate in series [1]: CCCCCCCCCC(=O)CC(=O)N[C@H]1CCOC1=O
Substrate in series [2]: CCCCCCCCCC(=O)N[C@H]1CCOC1=O
Substrate in series [3]: CCCCCCCC(=O)N[C@H]1CCOC1=O
Substrate in series [4]: CCCCCCCCCCCC(=O)N[C@H]1CCOC1=O

B1: PvdQ (Pseudomonas aeruginosa PAO1) (protein)
chain 1: DMPRPTGLAADIRWTAYGVPHIRAKDERGLGYGIGYAYARDNACLLAEEIVTARGERARYFGSEGKSSAELDNLPSDIFYAWLNQPEALQAFWQAQTPAVRQLLEGYAAGFNRFLREADGKTTSCLGQPWLRAIATDDLLRLTRRLLVEGGVGQFADALVAAAPPGAEKV
chain 2: SNAIAVGSERSADGKGMLLANPHFPWNGAMRFYQMHLTIPGRLDVMGASLPGLPVVNIGFSRHLAWTHTVDTSSHFTLYRLALDPKDPRRYLVDGRSLPLEEKSVAIEVRGADGKLSRVEHKVYQSIYGPLVVWPGKLDWNRSEAYALRDANLENTRVLQQWYSINQASDVADLRRRVEALQGIPWVNTLAADEQGNALYMNQSVVPYLKPELIPACAIPQLVAEGLPALQGQDSRCAWSRDPAAAQAGITPAAQLPVLLRRDFVQNSNDSAWLTNPASPLQGFSPLVSQEKPIGPRARYALSRLQGKQPLEAKTLEEMVTANHVFSADQVLPDLLRLCRDNQGEKSLARACAALAQWDRGANLDSGSGFVYFQRFMQRFAELDGAWKEPFDAQRPLDTPQGIALDRPQVATQVRQALADAAAEVEKSGIPDGARWGDLQVSTRGQERIAIPGGDGHFGVYNAIQSVRKGDHLEVVGGTSYIQLVTFPEEGPKARGLLAFSQSSDPRSPHYRDQTELFSRQQWQTLPFSDRQIDADPQLQRLSIRE
Turning to B1, the Km result in “purified protein [1]” is “(2.35 ± 0.07) × 10^2 μM”; in “purified protein [2]” it was “(1.13 ± 0.42) × 10^2 μM”; in the series “purified protein [3]”, “(1.18 ± 0.34) × 10^2 μM”; in “purified protein [4]”, 98.1 ± 34.1 µM. The kcat in “purified protein [1]” was 5.23 ± 0.55 s⁻¹. Besides, the kcat/Km in the series “purified protein [1]” is 22200 ± 4000 M⁻¹ s⁻¹.
